This is an account of results in patent publication US20140154243A1 (Amgen, published 2014).

Where only a bound is given, the exact number is not on record here.

By Kd is commonly meant the concentration at which binding is half-saturated. The term koff denotes a measure of how fast the partners let go of each other. Higher therefore signals a short-lived complex. Usually kon stands for the second-order rate constant of association. The low end stands for slow association, the high end for fast association. As a reminder, the IC50 is the concentration needed to halve the response being measured. Low values mean greater potency, high ones weaker potency.

In assay [1] the target is T1, human hepatocyte growth factor (HGF) (human, UniProt P14210 32-728). The experiment in a line: cell-based or functional assay.
T1 sequence (P14210 32-728 limits assumed): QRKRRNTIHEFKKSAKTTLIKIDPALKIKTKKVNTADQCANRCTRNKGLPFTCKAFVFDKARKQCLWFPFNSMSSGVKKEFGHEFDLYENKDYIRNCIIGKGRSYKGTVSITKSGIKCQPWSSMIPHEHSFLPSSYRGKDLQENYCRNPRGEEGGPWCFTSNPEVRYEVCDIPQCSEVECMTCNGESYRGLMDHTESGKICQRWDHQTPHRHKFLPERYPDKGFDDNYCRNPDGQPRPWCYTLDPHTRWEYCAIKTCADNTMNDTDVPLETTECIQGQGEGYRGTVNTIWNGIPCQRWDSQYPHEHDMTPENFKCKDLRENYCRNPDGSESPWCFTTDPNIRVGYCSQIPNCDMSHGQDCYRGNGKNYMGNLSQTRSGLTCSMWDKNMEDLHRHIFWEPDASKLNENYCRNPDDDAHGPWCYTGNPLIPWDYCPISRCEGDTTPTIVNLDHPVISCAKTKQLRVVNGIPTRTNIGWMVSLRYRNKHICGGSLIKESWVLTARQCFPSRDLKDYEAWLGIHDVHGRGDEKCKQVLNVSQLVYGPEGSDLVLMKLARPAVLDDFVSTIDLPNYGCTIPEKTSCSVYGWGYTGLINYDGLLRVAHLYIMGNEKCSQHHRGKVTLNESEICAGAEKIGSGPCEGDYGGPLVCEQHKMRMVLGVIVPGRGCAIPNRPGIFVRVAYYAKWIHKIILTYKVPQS
Assay [2] has as its target T1, human hepatocyte growth factor (HGF). Kind of assay: BIAcore 3000, kinetic method: antibody captured on immobilized Protein G, human HGF (0-100 nM) injected. An excerpt: The running buffer for those analyses was PBS with 0.005% P20 surfactant (BIAcore, Inc. Piscataway, N.J.). Recombinant Protein G (Pierce, Rockford, Ill.) was immobilized to a research grade CM5 sensor chip (Biacore, Inc. Piscataway, N.J.) via primary amine groups using the Amine Coupling Kit (Biacore, Inc. Piscataway, N.J.), according to the manufacturer's instructions.
In six separate samples, about 200 resonance units (RU) of each of the six antibodies to HGF was separately attached to immobilized Protein G following the manufacturer's instructions. Samples comprising various concentrations (0-100 nM) of human HGF were injected over the bound antibody surface at a flow rate of 50 μl/min for 3 minutes. Antibody binding kinetic parameters including kₐ (association rate constant), kd (dissociation rate constant), and KD (dissociation equilibrium constant) were determined using the BIA evaluation 3.1 computer program (BIAcore, Inc. Piscataway, N.J.). Lower dissociation equilibrium constants indicate greater affinity of the antibody for HGF.

Assay [3] shares this target. Kind of assay: BIAcore 3000, equilibrium/solution method: antibody (0.01-50 nM) incubated with human HGF (0.05 nM and 1 nM), free HGF measured on a chip carrying the same antibody. The method, then:
That method was performed with a BIAcore®3000 (Biacore, Inc., Piscataway, N.J.) using PBS with 0.005% P20 surfactant (BIAcore, Inc. Piscataway, N.J.) as running buffer. The four antibodies to HGF were separately immobilized to research grade CM5 sensor chips (Biacore, Inc. Piscataway, N.J.) via primary amine groups using an Amine Coupling Kit (Biacore, Inc. Piscataway, N.J.) following the manufacturer's instructions.
In separate assays, each of the four antibodies to HGF, over a range of concentrations (from 0.01 nM to 50 nM) was separately incubated with each of two different concentrations (0.05 nM and 1 nM) of human HGF in PBS with 0.005% P-20 and 0.1 mg/mL BSA at room temperature for at least six hours. Each of those samples was then injected over a surface of a CM5 sensor chip onto which the same antibody to HGF had been immobilized. The binding signal obtained was proportional to the free HGF in solution. The dissociation equilibrium constant (KD) was obtained from nonlinear regression analysis of the competition curves using a dual-curve one-site homogeneous binding model (KinExA software, Sapidyne Instruments Inc., Boise Id.).
In general terms: In SPR one partner is held on a chip, and binding of the other changes the refractive index at the surface.

In assay [4] the target is T2, mouse HGF (mouse, UniProt Q08048 33-728).
T2 construct: also called recombinant mouse HGF; mHGF
T2 sequence (Q08048 33-728 limits assumed): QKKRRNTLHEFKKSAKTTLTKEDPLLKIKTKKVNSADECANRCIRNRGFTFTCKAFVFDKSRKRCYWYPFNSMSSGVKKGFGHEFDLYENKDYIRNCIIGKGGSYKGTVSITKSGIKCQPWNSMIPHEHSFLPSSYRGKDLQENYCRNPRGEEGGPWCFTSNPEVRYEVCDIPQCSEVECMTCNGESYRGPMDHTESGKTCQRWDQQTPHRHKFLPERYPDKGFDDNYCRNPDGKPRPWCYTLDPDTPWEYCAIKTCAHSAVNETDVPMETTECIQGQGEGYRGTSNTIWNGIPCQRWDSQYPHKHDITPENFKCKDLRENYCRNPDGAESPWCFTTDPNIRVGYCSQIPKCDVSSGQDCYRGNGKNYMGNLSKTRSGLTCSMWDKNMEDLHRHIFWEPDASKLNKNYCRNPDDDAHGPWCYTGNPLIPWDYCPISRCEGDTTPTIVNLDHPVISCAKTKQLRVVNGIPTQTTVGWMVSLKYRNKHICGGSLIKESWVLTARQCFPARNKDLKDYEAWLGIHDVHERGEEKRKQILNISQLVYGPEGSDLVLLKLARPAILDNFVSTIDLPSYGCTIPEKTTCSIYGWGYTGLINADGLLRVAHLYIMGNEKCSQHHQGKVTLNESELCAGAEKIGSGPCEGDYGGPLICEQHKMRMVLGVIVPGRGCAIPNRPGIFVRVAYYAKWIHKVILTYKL
The experiment in a line: FACS bead assay: antibody incubated with the avidin fusion of mouse HGF, captured on biotin-coated beads; FITC anti-avidin (x) against PE goat anti-human F(ab')2 (y). As for the experimental part: After incubation, the fusion proteins in each sample were separately captured using biotin-coated beads (Spherotech Inc., Libertyville, Ill., Cat # TP-60-5). The resulting bead-protein complexes were labeled by adding FITC labeled anti-avidin antibody (Vector Lab, Burlingame, Calif., Cat. # SP-2040). The presence of antibodies to HGF was determined by adding phycoerythrin (PE) labeled goat anti-human F(ab′)2 antibody (Southern Biotech Associates, Inc, Birmingham, Ala., Cat #2043-09).
Those samples were then subjected to Fluorescence Activated Cell Sorter (FACS) analysis. Bead complexes labeled by FITC (which indicated the presence of avidin) and/or PE (which indicated the presence of antibody to HGF) were detected on a Becton Dickinson Bioscience FACScan (BD, Franklin Lakes, N.J.).

Assay [5] deals with T1, human hepatocyte growth factor (HGF). Kind of assay: neutralization ELISA (left table): inhibition of the binding of soluble Met (2 nM) to plate-coated HGF, detected with biotinylated anti-cMetR antibody and Eu-streptavidin; column head 'IC50 IP (nM)'. The method, then: (§1) A neutralization ELISA assay was developed to assess whether the antibodies discussed in Example 6 could interrupt Met-HGF binding. Delphia 96-well plates (Cat#: AAAND-0001, Wallac Inc., Gaithersburg, Md.) were coated with HGF by adding 100 μl of HGF at 6.25 μg/ml per well. The plates were incubated at 37° C. for 1 hour or at 4° C. overnight. The plates were then blocked with 5% BSA (Cat#50-61-00, KPL, Gaithersburg, Md.) in PBS containing 0.1% Tween 20 for 1 hour at room temperature with shaking.
(§2) Test samples were prepared by separately mixing soluble Met (2 nM, 0.256 μg/ml) with different concentrations of a particular antibody to HGF being tested. The concentrations tested were: 667 nM, 223 nM, 74.1 nM, 24.7 nM, 8.2 nM, 2.7 nM, 0.91 nM, 0.30 nM, 0.10 nM, and 0.034 nM. A volume of 100 μl of a test sample was added to each well of the plates. The plates were then incubated at 4° C. overnight and then washed 4 times with PBS containing 0.1% Tween 20. Next, 100 μl per well of Biotinylated anti-cMetR antibody (Cat#: BAF358, R&D Systems Inc., Minneapolis, Minn.) at 2 μg/ml, was added. […] The plates were then incubated for 2 hours with shaking, and were washed 4 times with PBS containing 0.1% Tween 20. Eu-streptavidin (1:1000 dilution in Assay buffer) (Cat#1244-360, Wallac Inc., Gaithersburg, Md.) was added and the plates were shaken at room temperature for 1 hour. The plates were then washed 4 times with PBS containing 0.1% Tween 20. Next, 100 μl of enhancement buffer (Wallac Inc., Cat#: 1244-105, Gaithersburg, Md.) was added. After at least for 5 minutes, the plates were read using Europium method on Victor 2 (1420 Multilabel Counter, Wallac Inc., Gaithersburg, Md.).
(§3) Percent inhibition of Met binding to HGF (i.e. neutralization) was calculated and IC₅₀ values were determined using the 4 parameter fit equation Excelfit, Version 2.0.6, (Microsoft Inc, Seattle, Wash.). In the presence of the antibodies to HGF discussed in Examples 6, Met binding to HGF was neutralized.
In general terms: In an ELISA, binding on a coated surface is turned into a signal by an enzyme label.

Assay [6] has the same target. Kind of assay: neutralization ELISA (right table): inhibition of the binding of soluble Met (2 nM) to plate-coated HGF, detected with biotinylated anti-cMetR antibody and Eu-streptavidin; column head 'IC50 IP (nM)'. The method, then: as §1, §2, §3

B1: antibody 1.74.3 (antibody, human IgG2, kappa, V domains shown)
VH: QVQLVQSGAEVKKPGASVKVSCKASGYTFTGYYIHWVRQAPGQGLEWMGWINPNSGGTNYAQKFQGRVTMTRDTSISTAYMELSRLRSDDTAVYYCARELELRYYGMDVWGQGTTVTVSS
VL: DIQMTQSPSSLSASVGDRVTITCRASQSINSDLNWYQQKPGKVPKLLIYVASSLQNGVPSRFSGSGSGTDFTLTISSLQPEDFATYYCQRSYSTPPTFGPGTKVDIKR
notes: also called 1.74.1; 1.74.2
B1: in assay [1], the “IC50, inhibition of growth/survival of U-87 MG cells” value is less than 100 nM. Besides, the results for the dissociation constant (Kd) in assay [2] and in assay [3] were roughly 0.36 nM and 0.041 nM, respectively. In assay [2], the dissociation rate constant (koff) was found to be 4.7e-05 s⁻¹. The same molecule registered an association rate constant (kon) in assay [2] of 130000 M⁻¹ s⁻¹. Also, the binding result in assay [4] is on record as “no binding”. Further, the IC50 in assay [5] is 3.7 nM; in assay [6] it was 2.31 nM.
